Ki data for 5 substances are collected here from patent US20030236184A1.

Experiment [1] concerns the target type-I GnRH binding site in the pituitary of adult male land-locked P. marinus (P. marinus (sea lamprey)). Nature of the experiment: competition with iodinated [DAla6,Pro9Net]-mammalian GnRH tracer, pituitary of adult male P. marinus; Ki from IC50.
For experiment [2], the target named is type-II GnRH binding site in the pituitary of adult male land-locked P. marinus (P. marinus (sea lamprey)). Described as above.
Experiment [3] concerns the target type-I GnRH binding site in the pituitary of adult male land-locked P. marinus (P. marinus (sea lamprey)). Nature of the experiment: self-displacement of iodinated [DAla6,Pro9Net]-mammalian GnRH tracer, pituitary of adult male P. marinus; Ki from IC50.
In experiment [4] the target is type-II GnRH binding site in the pituitary of adult male land-locked P. marinus (P. marinus (sea lamprey)). Described as above.

pKi: −log10 of the molar value.

Take [D-Phe^2, Gly^6]-lGnRH-III (peptide): the figures for the pKi in experiment [1] and in experiment [2] were 11.42 and 6.18, respectively.
“[DAla^6, Pro^9Net]-mammalian GnRH (peptide)”: the negative-log Ki (pKi) in experiment [3] is 11.51; in experiment [4], 7.05.
In the case of [D-Phe^2,6, Pro^3]-lGnRH-III (peptide), the values for the pKi in experiment [1] and in experiment [2] were 10.52 and 4.28, respectively.
As for [D-Phe^2, Gly^6]-lGnRH-I (peptide), the values for the pKi in experiment [1] and in experiment [2] were 8.86 and 5.25, respectively.
On the same counts, the results for “[Ac-Delta-3Pro, 4FDPhe^2-D-Trp^3,6]-lGnRH-III (peptide)” are 8.15 and 5.05.

What is called pKi is −log10 of the Ki, conventionally taken in molar units. Read a low pKi as a high Ki.
